The record followed here is patent US20260241018A1 (BIOCYTOGEN PHARMACEUTICALS BEIJING, published 2026).

Experiment [1] addresses T1, dog 5T4 expressed on CHO-S cells (CHO-d5T4 cells) (dog).
T1 chain: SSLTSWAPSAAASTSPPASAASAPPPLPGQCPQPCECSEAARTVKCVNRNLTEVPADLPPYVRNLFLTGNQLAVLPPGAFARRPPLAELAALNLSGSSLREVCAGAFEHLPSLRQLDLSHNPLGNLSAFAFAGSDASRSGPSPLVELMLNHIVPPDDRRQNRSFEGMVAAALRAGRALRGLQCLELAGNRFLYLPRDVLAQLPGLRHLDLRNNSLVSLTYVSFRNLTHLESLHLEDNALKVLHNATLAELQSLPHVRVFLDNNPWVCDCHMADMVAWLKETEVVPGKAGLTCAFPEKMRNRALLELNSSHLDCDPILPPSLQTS
In words: flow cytometry, CHO-d5T4 cells. As for the experimental part:
CHO-h5T4 cells, CHO-m5T4 cells, CHO-fas5T4 cells or CHO-d5T4 cells were transferred to a 96-well plate at a density of 2×10⁵ cells/well respectively. The anti-5T4 antibodies were added to the 96-well plate, and incubated at 4° C. for 30 min. Then, the cells were incubated with the secondary antibody anti-hlgG-Fc-Alex Flour 647 (RL1-H) (Jackson ImmunoResearch Laboratories, Inc., Cat #: 109-606-170) at 4° C. in the dark for 15 minutes before flow cytometry analysis.
A general note: A flow cytometer gives signals particle by particle.

For experiment [2], the target named is T2, His-tagged 5T4 protein of human (h5T4, ACRO Biosystems Inc., Cat #: TPG-H52E5) (human, UniProt Q13641 32-355).
T2 construct: Bought protein; not shown: His tag
T2 sequence (looked up): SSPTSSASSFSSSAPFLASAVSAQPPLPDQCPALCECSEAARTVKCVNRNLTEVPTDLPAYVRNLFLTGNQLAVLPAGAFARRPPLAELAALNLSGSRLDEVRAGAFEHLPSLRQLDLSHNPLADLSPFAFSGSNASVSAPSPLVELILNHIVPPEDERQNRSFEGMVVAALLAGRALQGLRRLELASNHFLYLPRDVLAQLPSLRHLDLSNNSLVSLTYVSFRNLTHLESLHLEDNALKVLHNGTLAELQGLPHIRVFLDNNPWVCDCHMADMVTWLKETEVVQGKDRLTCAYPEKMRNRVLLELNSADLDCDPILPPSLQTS
In words: SPR (Biacore 8K), antibody captured on Protein A chip, His-tagged 5T4 as analyte. On the procedure:
(§1) Purified anti-5T4 antibodies were diluted to 2 μg/mL and then injected into the Biacore™ 8K biosensor at 10 μL/min for about 50 seconds to achieve a desired protein density (e.g., about 50 response units (RU)). His-tagged 5T4 protein at a concentration of 200 nM was then injected at 30 μL/min for 180 seconds. Dissociation was monitored for 400 seconds. The chip was regenerated after the last injection of each titration with Glycine (pH 2.0), 30 μL/min for 30 seconds. For ISO control, an antibody targeting an irrelevant target protein was used.
(§2) As a person of ordinary skill in the art would understand, the same method with appropriate adjustments for parameters (e.g., antibody concentration) was performed for each tested antibody.

Experiment [3] has as its target T3, His-tagged 5T4 protein of monkey (fas5T4, ACRO Biosystems Inc., Cat #: TPG-C52H3) (monkey, UniProt Q4R8Y9 35-355).
T3 construct: Bought protein
T3 sequence: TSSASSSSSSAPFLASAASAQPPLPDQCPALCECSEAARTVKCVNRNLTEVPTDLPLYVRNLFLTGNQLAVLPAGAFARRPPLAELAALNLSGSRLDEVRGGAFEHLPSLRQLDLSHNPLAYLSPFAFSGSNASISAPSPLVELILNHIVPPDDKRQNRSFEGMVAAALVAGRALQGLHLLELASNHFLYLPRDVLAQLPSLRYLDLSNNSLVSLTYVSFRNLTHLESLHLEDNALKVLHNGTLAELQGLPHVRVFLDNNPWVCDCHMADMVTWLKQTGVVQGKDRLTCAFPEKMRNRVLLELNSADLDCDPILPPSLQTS
Described as above. On the procedure:
as §1, §2

Experiment [4] addresses T4, 5T4 on NCI-H226 cells, NCI-H2030 cells and HCC827 cells (UniProt Q13641 32-420, limits assumed).
T4 construct: whole, on cells
T4 sequence (looked up): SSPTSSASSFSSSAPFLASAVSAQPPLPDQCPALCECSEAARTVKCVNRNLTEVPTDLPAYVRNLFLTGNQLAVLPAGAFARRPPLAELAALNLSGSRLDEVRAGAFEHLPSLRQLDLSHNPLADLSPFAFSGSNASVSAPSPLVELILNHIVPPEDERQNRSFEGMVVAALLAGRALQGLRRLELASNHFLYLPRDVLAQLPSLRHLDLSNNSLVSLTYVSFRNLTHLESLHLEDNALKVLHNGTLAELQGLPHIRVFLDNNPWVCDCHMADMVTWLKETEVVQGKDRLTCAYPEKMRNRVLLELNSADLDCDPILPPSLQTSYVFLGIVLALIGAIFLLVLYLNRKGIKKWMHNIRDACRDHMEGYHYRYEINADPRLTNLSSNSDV
In words: flow cytometry on NCI-H226 cells, Alexa Fluor 647 anti-human IgG Fc secondary antibody, MFI. On the procedure:
NCI-H226 cells, NCI-H2030 cells or HCC827 cells were plated in a 96-well plate at a density of 2×10⁵ cells/well. Serially diluted purified anti-5T4 antibody 32G1 or the positive control PF06263507 analog-SI (maximum concentration: 20 μg/mL, 2-fold dilutions, 12 gradients) were added to each well and were incubated at 4° C. for 30 minutes. Then, after one wash with PBS, the cells were incubated with the secondary antibody Alexa Fluor® 647 anti human IgG Fcγ (Jackson ImmunoResearch Laboratories, Inc., Cat #: 109-606-170) at 4° C. for 15 minutes before flow cytometry analysis.
The cells were collected, and the mean fluorescence intensity (MFI) was determined.

B1: 32G1 (antibody, V domains shown)
VH: QVQLVQSGGGLVKPGGSLRLSCVASGFTFSDYYMNWVRQAPGKGLEWISYVGTESIYTYYADTVKGRFTISRDNAKNSLYLQMNSLRAEDTALYYCARARDYNLYGMDVWGQGTTVTVSS
VL: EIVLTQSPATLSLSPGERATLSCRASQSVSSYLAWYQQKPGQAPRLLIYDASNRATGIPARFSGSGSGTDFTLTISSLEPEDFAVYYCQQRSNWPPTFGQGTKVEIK
notes: also called anti-5T4 antibody 32G1
For the molecule B1, in experiment [1], the “Percentage of Positive Cells” value is 56.3%. Further, in experiment [2], the Kd (usually the equilibrium constant for the complex coming apart) was 368 nM; the koff – broadly, the first-order rate constant of dissociation – turned out to be 0.0249 s⁻¹; the on-rate (kon) (as a rule, a measure of how fast the partners come together) was 67700 M⁻¹ s⁻¹. In experiment [3], this molecule had a Kd of 70.1 nM, a koff of 12.3 s⁻¹ and a kon of 1.75e+08 M⁻¹ s⁻¹. The concentration giving a half-maximal response (EC50 (read off the curve)) (as a rule, the concentration needed to bring the measured effect to its halfway point) in experiment [4] is around 0.3 µg/mL.
